# Measurements published in patent US20090191187A1.
# Target: human interleukin-1 receptor on cells (MRC-5 human embryonic lung fibroblasts; human blood cells) (human) (UniProt P14778)
# Experiment: cell-based or functional assay
# human interleukin-1 receptor on cells (MRC-5 human embryonic lung fibroblasts; human blood cells) (human), sequence (P14778 18-569): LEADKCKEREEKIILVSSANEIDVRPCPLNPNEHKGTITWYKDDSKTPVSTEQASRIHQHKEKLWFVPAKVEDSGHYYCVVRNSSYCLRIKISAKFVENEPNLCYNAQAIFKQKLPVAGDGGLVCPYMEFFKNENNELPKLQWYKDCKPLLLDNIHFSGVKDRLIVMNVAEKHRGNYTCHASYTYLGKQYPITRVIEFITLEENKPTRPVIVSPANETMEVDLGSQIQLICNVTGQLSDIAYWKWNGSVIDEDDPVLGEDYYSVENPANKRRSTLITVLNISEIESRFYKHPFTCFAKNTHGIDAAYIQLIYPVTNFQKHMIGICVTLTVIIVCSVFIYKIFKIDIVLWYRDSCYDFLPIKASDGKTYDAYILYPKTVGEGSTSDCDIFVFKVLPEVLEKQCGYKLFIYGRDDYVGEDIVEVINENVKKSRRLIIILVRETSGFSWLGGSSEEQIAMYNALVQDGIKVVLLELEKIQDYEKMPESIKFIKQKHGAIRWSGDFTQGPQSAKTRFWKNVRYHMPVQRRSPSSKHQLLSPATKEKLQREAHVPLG
row,Substance,IC-50 (MRC-5 bioassay)
1,"Cell Sciences Cat.# CM2028, clone RMHL-1 (antibody)",> 100 ng/mL
2,"Antigenix Cat.# MC260020, clone R11 (antibody)",> 100 ng/mL
3,"BD Pharmingen Cat.# 551388, clone HIL1R-M1 (antibody)",> 100 ng/mL
4,"Antigenix Cat.# MC261020, clone R12 (antibody)",> 100 ng/mL
5,"PBL Biomedical Laboratories Cat.# 21808-1, clone RMH1R-1 (antibody)",33 ng/mL
6,"PBL Biomedical Laboratories Cat.# 21809-1, clone RMH1R-2 (antibody)",> 100 ng/mL
7,"Biotrend Cat.# 0100-0242, clone 49/20 (antibody)",> 100 ng/mL
8,"R&D Systems Cat.# MAB269, clone 35730 (antibody)",> 100 ng/mL
